System: Human umbilical vein endothelial cells (HUVEC)
Test: [3H]thymidine incorporation, HUVEC growth in vitro
Assay type: cell-based
Conditions: increasing concentrations, FIG. 6C
Protocol: To determine if the '362 peptide or the '367 peptide affects the in-vitro growth of cells, the '362 peptide was tested in culture dishes for the ability to inhibit the growth of prostrate tumor cells or of lung tumor cells. Radioactive hydrogen (^3 H) was attached to thymidine([^3H]hymidine), which is one of the components of DNA. Cells that grow in the presence of [^3H]thymidine incorporate the radioactive thymidine into their DNA.
Human umbilical vein endothelial cells (HUVEC) were also grown in increasing concentrations of the '362 peptide or '367 peptide in the presence of radioactive thymidine. HUVEC cells are commonly used to test for angiogenic regulation because these cells respond to angiogenic inhibitors in a fashion similar to the cells in the human body that form new blood vessels. […] Research protocols designed to elucidate the reasons for this unexpected difference in response of HUVEC to endostatin protein and to '362 peptide are set out in the Research Plan, Phoenix Pharmaceuticals, Inc., 2438 Wyandotte Street, Mountain View, Calif. 94043, (1999) which is hereby incorporated by reference.

B1: endostatin protein: protein of about 20 kDa with a zinc-binding domain, inhibitor of endothelial cell growth (FIG. 5) (protein, UniProt P39060 1572-1754, looked up)
Endostatin: HSHRDFQPVLHLVALNSPLSGGMRGIRGADFQCFQQARAVGLAGTFRAFLSSRLQDLYSIVRRADRAAVPIVNLKDELLFPSWEALFSGSEGPLKPGARIFSFDGKDVLRHPTWPQKSVWHGSDPNGRRLTESYCETWRTEAPSATGQASSLLGGRLLGQSAASCHHAYIVLCIENSFMTASK
modifications: Endostatin
  HUVEC growth rate (radioactive thymidine): dramatic reduction in HUVEC growth
